Assay results published in patent US11840557B2, “Wnt7 variants capable of activating g-protein coupled receptor (Gpr)124/Reck/frizzled/lipoprotein receptor-related protein (LRP)-mediated Wnt signaling” (UNIVERSITÉ LIBRE DE BRUXELLES, priority 2018, dated 2023).
Ends that are not written are not given here.

How the values were obtained:
Reck-CK-Fc = experiment: Isothermal titration calorimetry (ITC) of synthetic Wnt linker peptides into recombinant Reck-CK-Fc; assay type: binding
Procedure: Reck-CK-Fc fusion proteins were recovered in serum-free FreeStyle 293 Expression Medium (Thermo Fisher Scientific, Waltham, Mass.) from the supernatant of HEK293T cell cultures 72 h post transfection with Lipofectamine 2000 (Life Technologies, Carlsbad, Calif.). After collection, the supernatants were either concentrated 50 times by centrifugation (GE Healthcare, Little Chalfont, UK) or submitted to Protein G affinity purification (Protein G Sepharose 4 Fast Flow, Sigma-Aldrich, St. Louis, Mo.). Protein purity was assessed using Coomassie blue staining after PAGE. Synthetic Wnt linker peptides were obtained from Chinapeptide Co., Ltd at purities over 90%.
ITC titrations were carried out on an Affinity ITC (TA Instruments). Prior to the measurement, Reck-CK-Fc and all Reck-CK-Fc fusions were dialyzed to Tris-NaCl buffer (50 mM Tris pH8, 300 mM NaCl). In each case Wnt-derived peptides were prepared with buffer from the last step of protein dialysis. The samples were filtered and degassed before being examined in the calorimeter and the titrations were performed 25° C. All the experiments consisted of injection of constant volumes of 2 μL of titrant into the cell (200 μL) with a stirring rate of 75 rpm. Nominal sample concentrations were between 20 μM and 40 μM in the cell and 400 μM to 1.0 mM in the syringe. Actual sample concentrations were determined after dialysis or buffer exchange by measurement of their absorption at 280 nm or the BCA method. All data were analyzed using the MicroCal Origin ITC 7.0, and NanoAnalyze software packages.

HA-Reck = target: T1, HA-Reck (Homo sapiens, UniProt O95980); experiment: Proximity ligation assay (PLA), anti-V5/anti-HA, V5-tagged Wnt ligand and HA-Reck in GPR124−/−;RECK−/− cells; assay type: cell-based; details: GPR124−/−;RECK−/− cells co-expressing HA-Reck
T1 construct: expressed in transfected cells; host or cells: GPR124-/-;RECK-/- HEK293 (STF) cells, pCS2 / CMV promoter
T1 sequence (O95980 23-942): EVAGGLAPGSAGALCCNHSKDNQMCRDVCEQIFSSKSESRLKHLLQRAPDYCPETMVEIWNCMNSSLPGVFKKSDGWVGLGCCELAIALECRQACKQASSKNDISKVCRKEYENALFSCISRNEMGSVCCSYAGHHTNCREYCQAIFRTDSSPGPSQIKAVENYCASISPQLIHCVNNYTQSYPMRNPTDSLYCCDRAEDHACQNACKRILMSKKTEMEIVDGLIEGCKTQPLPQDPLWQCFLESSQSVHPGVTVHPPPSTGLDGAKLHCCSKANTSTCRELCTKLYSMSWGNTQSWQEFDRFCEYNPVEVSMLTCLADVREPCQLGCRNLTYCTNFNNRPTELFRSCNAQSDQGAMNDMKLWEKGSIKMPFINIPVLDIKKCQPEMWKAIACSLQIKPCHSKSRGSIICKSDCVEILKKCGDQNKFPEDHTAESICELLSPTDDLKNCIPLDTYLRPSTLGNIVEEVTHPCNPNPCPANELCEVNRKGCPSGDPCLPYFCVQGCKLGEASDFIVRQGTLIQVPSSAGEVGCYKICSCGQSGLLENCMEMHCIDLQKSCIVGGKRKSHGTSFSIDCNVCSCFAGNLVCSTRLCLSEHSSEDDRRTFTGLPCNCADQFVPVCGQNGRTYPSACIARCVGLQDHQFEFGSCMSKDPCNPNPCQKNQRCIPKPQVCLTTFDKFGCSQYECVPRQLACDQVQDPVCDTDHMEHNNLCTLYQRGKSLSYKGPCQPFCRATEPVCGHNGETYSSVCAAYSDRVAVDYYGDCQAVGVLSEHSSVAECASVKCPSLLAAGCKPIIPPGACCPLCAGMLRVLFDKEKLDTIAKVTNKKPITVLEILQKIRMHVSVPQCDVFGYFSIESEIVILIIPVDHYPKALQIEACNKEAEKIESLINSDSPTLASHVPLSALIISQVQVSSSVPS
Procedure: (§1) 1.7. Immunofluorescence and Proximity Ligation Assay Cells were grown in glass-coated chambers (IBIDI, Martinsried, Germany) and transfected after 24 h with Lipofectamine 2000 (Life Technologies, Carlsbad, Calif.). Cells were fixed with 4% paraformaldehyde for 10 min at room temperature (RT) 48 h post transfection. For immunofluorescence staining (IF), cells were blocked in 1% BSA-PBS for 30 min before being exposed to primary antibodies for 1 h at RT. After three PBS washes, cells were incubated with secondary antibodies for 1 h at RT. For anti-V5 staining of Wnt ligands, cells were additionally washes for 10 min in PBS 0.1% Tween 20 before incubation with the secondary antibody solution. For the proximity ligation assay (PLA) (Sigma-Aldrich, St. Louis, Mo.), cells were blocked for 30 min at 37° C. with the Blocking solution provided by the manufacturer before being incubated with the primary antibodies for 1 h at RT. Cells were washed three times and incubated with the PLA probes anti-rabbit PLUS and anti-mouse MINUS for 1 h at 37° C. After two PBS washes, cells were incubated with the Duolink Ligation solution for 30 min at 37° C. After two PBS washes, cells were incubated with the Duolink Amplification solution for 100 min at 37° C. The following antibodies were used: mouse monoclonal anti-V5 (R96025, Life Technologies, Carlsbad, Calif.) at 1:500 for IF and PLA, purified polyclonal rabbit anti-HA (H6908, St. Louis, Mo.) at 1:400 for IF and PLA and anti-mouse Alexa488-conjugated secondary antibody (Thermo Fisher Scientific, Waltham, Mass.) at 1:5000. Cells were stained for 2 min with Hoechst diluted to 10 μg ml-1 in PBS.
Cells and zebrafish embryos were imaged with an LSM710 confocal microscope and images were processed in ImageJ. Images of eye fusion phenotypes were taken on Leica M165 FC. Representations of brain vasculature were generated using Imaris software (BitPlane, Zurich, Switzerland). The percentage of PLA positive (PLA+) areas and DAPI positive (DAPI+) areas were calculated using ImageJ on images containing about 50 to 100 cells. The PLA+ area was measured after manually applying a fixed threshold. The DAPI+ area was measured after applying the “default” thresholding method in Image J.

[1] = tested on: plasma membrane of HEK293 cells; experiment: Anti-V5 immunostaining of transiently expressed V5-tagged Wnt ligands in non-permeabilized cells; assay type: cell-based, human
Procedure: as §1, with “After two PBS washes, cells were incubated with the Duolink Amplification solution for 100 min at 37° C. The following antibodies were used: mouse monoclonal anti-V5 (R96025, Life Technologies, Carlsbad, Calif.) at 1:500 for IF and PLA, purified polyclonal rabbit anti-HA (H6908, St. Louis, Mo.) at 1:400 for IF and PLA and anti-mouse Alexa488-conjugated secondary antibody (Thermo Fisher Scientific, Waltham, Mass.) at 1:5000. Cells were stained for 2 min with Hoechst diluted to 10 μg ml-1 in PBS.” left out
It was determined how Wnt7 is specifically recognized within this signaling module, a question inherently complicated by the ubiquitous expression of Frizzled receptors and their Lrp5/6 co-receptors in vertebrate cells. […]

With VEVVRASRLRQPTFLRIKQLRSYQKPMET [pWnt7b] the Kd (Reck-CK-Fc; 25° C., Tris-NaCl buffer pH8, read-out: affinity of binding to Reck (ITC)) was 1200 nM and the “Reck CK motifs required for binding (ITC with Reck-CK-Fc deletion variants)” value (Reck-CK-Fc; Reck-CK^ΔCK1-Fc to Reck-CK^ΔCK5-Fc) was “required Reck CK4 and CK5, but not CK1, CK2 and CK3”.

For “pWnt3a: control equivalent linker peptide of Wnt3a (MVVEKHRESRGWVETLRPRYTYFKVPTER) [reference compound]”, the “binding to Reck-CK-Fc (ITC)” value (Reck-CK-Fc; 25° C.) was “no binding”.

B1: Wnt71-237: smaller NTD variant lacking the linker region (protein)
chain: LGASIICNKIPGLAPRQRAICQSRPDAIIVIGEGSQMGLDECQFQFRNGRWNCSALGERTVFGKELKVGSREAAFTYAIIAAGVAHAITAACTQGNLSDCGCDKEKQGQYHRDEGWKWGGCSADIRYGIGFAKVFVDAREIKQNARTLMNLHNNEAGRKILEENMKLECKCHGVSGSCTTKTCWTTLPQFRELGYVLKDKYNEAVH
modifications: left off: small tags and cut ends
notes: smaller NTD variant lacking the linker region
In the case of B1, the “Reck binding (anti-V5/anti-HA PLA signal)” value (shortened to “Reck binding”) (HA-Reck) is reported as “did not bind Reck”.

B2: Wnt7a-V5: V5-tagged Wnt7a ligand transiently expressed in cells (protein)
chain: LGASIICNKIPGLAPRQRAICQSRPDAIIVIGEGSQMGLDECQFQFRNGRWNCSALGERTVFGKELKVGSREAAFTYAIIAAGVAHAITAACTQGNLSDCGCDKEKQGQYHRDEGWKWGGCSADIRYGIGFAKVFVDAREIKQNARTLMNLHNNEAGRKILEENMKLECKCHGVSGSCTTKTCWTTLPQFRELGYVLKDKYNEAVHVEPVRASRNKRPTFLKIKKPLSYRKPMDTDLVYIEKSPNYCEEDPVTGSVGTQGRACNKTAPQASGCDLMCCGRGYNTHQYARVWQCNCKFHWCCYVKCNTCSERTEMYTCK
modifications: left off: small tags and cut ends
notes: V5-tagged Wnt7a ligand transiently expressed in cells
B2 was tested, and the “immunodetection at the plasma membrane” value ([1]; GPR124−/−;RECK−/− cells) was “not at those of GPR124^−/−;RECK^−/− cells” and the “immunodetection at the plasma membrane” value ([1]; WT, FZ1-10−/− and LRP5−/−;LRP6−/− cells) was “could be immunodetected at the plasma membrane”.

B3: Wnt7a′: garbled label of a Wnt7a domain variant, probably the C-terminal domain alone (protein)
chain: LGASIICNKIPGLAPRQRAICQSRPDAIIVIGEGSQMGLDECQFQFRNGRWNCSALGERTVFGKELKVGSREAAFTYAIIAAGVAHAITAACTQGNLSDCGCDKEKQGQYHRDEGWKWGGCSADIRYGIGFAKVFVDAREIKQNARTLMNLHNNEAGRKILEENMKLECKCHGVSGSCTTKTCWTTLPQFRELGYVLKDKYNEAVHVEPVRASRNKRPTFLKIKKPLSYRKPMDTDLVYIEKSPNYCEEDPVTGSVGTQGRACNKTAPQASGCDLMCCGRGYNTHQYARVWQCNCKFHWCCYVKCNTCSERTEMYTCK
In the case of B3, the “Reck binding” value (HA-Reck) is reported as “did not”.

B4: Wnt7a^S206A: mutant Wnt7a incapable of being palmitoylated at Serine 206 (protein)
chain: LGASIICNKIPGLAPRQRAICQSRPDAIIVIGEGSQMGLDECQFQFRNGRWNCSALGERTVFGKELKVGSREAAFTYAIIAAGVAHAITAACTQGNLSDCGCDKEKQGQYHRDEGWKWGGCSADIRYGIGFAKVFVDAREIKQNARTLMNLHNNEAGRKILEENMKLECKCHGVAGSCTTKTCWTTLPQFRELGYVLKDKYNEAVHVEPVRASRNKRPTFLKIKKPLSYRKPMDTDLVYIEKSPNYCEEDPVTGSVGTQGRACNKTAPQASGCDLMCCGRGYNTHQYARVWQCNCKFHWCCYVKCNTCSERTEMYTCK
modifications: left off: small tags and cut ends
B4 was tested, and the “Reck binding” value (HA-Reck) was “bound Reck efficiently”.

B5: Wnt7a^1-212: smaller NTD variant lacking the linker region (protein)
chain: LGASIICNKIPGLAPRQRAICQSRPDAIIVIGEGSQMGLDECQFQFRNGRWNCSALGERTVFGKELKVGSREAAFTYAIIAAGVAHAITAACTQGNLSDCGCDKEKQGQYHRDEGWKWGGCSADIRYGIGFAKVFVDAREIKQNARTLMNLHNNEAGRKILEENMKLECKCHGVSGSCTTK
modifications: left off: small tags and cut ends
notes: as for B1
B5 was tested, and the “Reck binding” value (HA-Reck) was “did not bind Reck”.
